T1: FcγRIIb (human, UniProt P31994 43-217)
T1 construct: extracellular domain; also called FcgRIIb; 2b; not shown: His tag at the C terminus
T1 sequence (looked up): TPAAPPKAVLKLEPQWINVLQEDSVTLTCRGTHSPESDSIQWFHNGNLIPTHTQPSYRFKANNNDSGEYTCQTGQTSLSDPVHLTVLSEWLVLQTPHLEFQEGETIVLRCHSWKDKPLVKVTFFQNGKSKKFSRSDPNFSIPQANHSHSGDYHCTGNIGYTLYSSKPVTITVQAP

B1: GpH7-A5/GpH7-B3 variant S324_01G/GpL16-k0 (heterodimerized antibody, He Ab) (antibody, human IgG1, kappa)
heavy 1: not shown
heavy 2: not shown
light: DIVMTQSPLSLPVTPGEPASISCQASESLVHSNRNTYLHWYLQKPGQSPQLLIYKVSNRFSGVPDRFSGSGSGTDFTLKISRVEAEDVGVYYCSQNTHVPPTFGQGTKVEIERTVAAPSVFIFPPSDEQLKSGTASVVCLLNNFYPREAKVQWKVDNALQSGNSQESVTEQDSKDSTYSLSSTLTLSKADYEKHKVYACEVTHQGLSSPVTKSFNRGEC
notes: Mutation in one H chain only; also called S324_01G He Ab
B2: GpH7-A5/GpH7-B3 variant S239_10E/GpL16-k0 (heterodimerized antibody, He Ab) (antibody, human IgG1, kappa)
heavy 1: not shown
heavy 2: not shown
light: B1 light
notes: Mutation in one H chain only; also called S239_10E He Ab
B3: GpH7-A5/GpH7-B3 variant S239_18N/GpL16-k0 (heterodimerized antibody, He Ab) (antibody, human IgG1, kappa)
heavy 1: not shown
heavy 2: not shown
light: B1 light
notes: Mutation in one H chain only; also called S239_18N He Ab
B4: GpH7-A5/GpH7-B3 variant S298_03V/GpL16-k0 (heterodimerized antibody, He Ab) (antibody, human IgG1, kappa)
heavy 1: not shown
heavy 2: not shown
light: B1 light
notes: Mutation in one H chain only; also called S298_03V He Ab
B5: GpH7-A5/GpH7-B3 variant S324_06M/GpL16-k0 (heterodimerized antibody, He Ab) (antibody, human IgG1, kappa)
heavy 1: not shown
heavy 2: not shown
light: B1 light
notes: Mutation in one H chain only; also called S324_06M He Ab
B6: GpH7-A5/GpH7-B3 variant S324_09D/GpL16-k0 (heterodimerized antibody, He Ab) (antibody, human IgG1, kappa)
heavy 1: not shown
heavy 2: not shown
light: B1 light
notes: Mutation in one H chain only; also called S324_09D He Ab
B7: GpH7-A5/GpH7-B3 variant S324_14T/GpL16-k0 (heterodimerized antibody, He Ab) (antibody, human IgG1, kappa)
heavy 1: not shown
heavy 2: not shown
light: B1 light
notes: Mutation in one H chain only; also called S324_14T He Ab
B8: GpH7-A5/GpH7-B3 variant S324_20W/GpL16-k0 (heterodimerized antibody, He Ab) (antibody, human IgG1, kappa)
heavy 1: not shown
heavy 2: not shown
light: B1 light
notes: Mutation in one H chain only; also called S324_20W He Ab
B9: GpH7-A5/GpH7-B3 variant S337_01G/GpL16-k0 (heterodimerized antibody, He Ab) (antibody, human IgG1, kappa)
heavy 1: not shown
heavy 2: not shown
light: B1 light
notes: Mutation in one H chain only; also called S337_01G He Ab
B10: GpH7-A5/GpH7-B3 variant S337_16H/GpL16-k0 (heterodimerized antibody, He Ab) (antibody, human IgG1, kappa)
heavy 1: not shown
heavy 2: not shown
light: B1 light
notes: Mutation in one H chain only; also called S337_16H He Ab
B11: GpH7-A5/GpH7-B3 variant T335_05P/GpL16-k0 (heterodimerized antibody, He Ab) (antibody, human IgG1, kappa)
heavy 1: not shown
heavy 2: not shown
light: B1 light
notes: Mutation in one H chain only; also called T335_05P He Ab
B12: GpH7-A5/GpH7-B3 variant T335_06M/GpL16-k0 (heterodimerized antibody, He Ab) (antibody, human IgG1, kappa)
heavy 1: not shown
heavy 2: not shown
light: B1 light
notes: Mutation in one H chain only; also called T335_06M He Ab
B13: GpH7-A5/GpH7-B3 variant T335_08L/GpL16-k0 (heterodimerized antibody, He Ab) (antibody, human IgG1, kappa)
heavy 1: not shown
heavy 2: not shown
light: B1 light
notes: Mutation in one H chain only; also called T335_08L He Ab
B14: GpH7-A5/GpH7-B3 variant T335_09D/GpL16-k0 (heterodimerized antibody, He Ab) (antibody, human IgG1, kappa)
heavy 1: not shown
heavy 2: not shown
light: B1 light
notes: Mutation in one H chain only; also called T335_09D He Ab
B15: GpH7-A5/GpH7-B3 variant Y296_20W/GpL16-k0 (heterodimerized antibody, He Ab) (antibody, human IgG1, kappa)
heavy 1: not shown
heavy 2: not shown
light: B1 light
notes: Mutation in one H chain only; also called Y296_20W He Ab
B16: GpH7-A5/GpH7-B3 variant Y300_08L/GpL16-k0 (heterodimerized antibody, He Ab) (antibody, human IgG1, kappa)
heavy 1: not shown
heavy 2: not shown
light: B1 light
notes: Mutation in one H chain only; also called Y300_08L He Ab
B17: GpH7-A5/GpH7-B3 variant P331_06M/GpL16-k0 (antibody, human IgG1, kappa)
heavy 1: not shown
heavy 2: not shown
light: B1 light
notes: heterodimerized IgG1; alteration in the GpH7-B3 H chain only; also called He Ab
B18: GpH7-A5/GpH7-B3 variant P331_07I/GpL16-k0 (antibody, human IgG1, kappa)
heavy 1: not shown
heavy 2: not shown
light: B1 light
notes: as for B17
B19: GpH7-A5/GpH7-B3 variant P331_10E/GpL16-k0 (antibody, human IgG1, kappa)
heavy 1: not shown
heavy 2: not shown
light: B1 light
notes: as for B17
B20: GpH7-A5/GpH7-B3 variant P331_15Y/GpL16-k0 (antibody, human IgG1, kappa)
heavy 1: not shown
heavy 2: not shown
light: B1 light
notes: as for B17
B21: GpH7-A5/GpH7-B3 variant S324_06M/GpL16-k0 (antibody, human IgG1, kappa)
heavy 1: not shown
heavy 2: not shown
light: B1 light
notes: as for B17

Target: T2, FcγRIIIa extracellular domain with C-terminal His tag (human, UniProt P08637 17-208)
T2 construct: extracellular domain; also called 3a; FcgRIIIa
T2 sequence (P08637 17-208): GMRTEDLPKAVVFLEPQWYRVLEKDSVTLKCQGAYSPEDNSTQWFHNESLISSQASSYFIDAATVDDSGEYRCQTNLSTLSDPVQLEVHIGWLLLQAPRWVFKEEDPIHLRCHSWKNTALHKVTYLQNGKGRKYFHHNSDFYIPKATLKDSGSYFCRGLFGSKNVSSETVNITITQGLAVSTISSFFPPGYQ
Assay: SPR (Biacore), antibody captured on antigen-peptide chip, FcγR analyte, relative binding

Binder | He/Con_3a
B1 | 105 % of GpH7-A5/GpH7-B3/GpL16-k0 (=100)
B2 | 181 % of GpH7-A5/GpH7-B3/GpL16-k0 (=100)
B3 | 110 % of GpH7-A5/GpH7-B3/GpL16-k0 (=100)
B4 | 109 % of GpH7-A5/GpH7-B3/GpL16-k0 (=100)
B5 | 113 % of GpH7-A5/GpH7-B3/GpL16-k0 (=100)
B6 | 101 % of GpH7-A5/GpH7-B3/GpL16-k0 (=100)
B7 | 103 % of GpH7-A5/GpH7-B3/GpL16-k0 (=100)
B8 | 102 % of GpH7-A5/GpH7-B3/GpL16-k0 (=100)
B9 | 102 % of GpH7-A5/GpH7-B3/GpL16-k0 (=100)
B10 | 108 % of GpH7-A5/GpH7-B3/GpL16-k0 (=100)
B11 | 105 % of GpH7-A5/GpH7-B3/GpL16-k0 (=100)
B12 | 102 % of GpH7-A5/GpH7-B3/GpL16-k0 (=100)
B13 | 102 % of GpH7-A5/GpH7-B3/GpL16-k0 (=100)
B14 | 108 % of GpH7-A5/GpH7-B3/GpL16-k0 (=100)
B15 | 135 % of GpH7-A5/GpH7-B3/GpL16-k0 (=100)
B16 | 105 % of GpH7-A5/GpH7-B3/GpL16-k0 (=100)

Target: T3, FcγRIa (human, UniProt P12314 16-292)
T3 construct: extracellular domain; also called FcgRI; 1a; not shown: His tag at the C terminus
T3 sequence (P12314 16-292): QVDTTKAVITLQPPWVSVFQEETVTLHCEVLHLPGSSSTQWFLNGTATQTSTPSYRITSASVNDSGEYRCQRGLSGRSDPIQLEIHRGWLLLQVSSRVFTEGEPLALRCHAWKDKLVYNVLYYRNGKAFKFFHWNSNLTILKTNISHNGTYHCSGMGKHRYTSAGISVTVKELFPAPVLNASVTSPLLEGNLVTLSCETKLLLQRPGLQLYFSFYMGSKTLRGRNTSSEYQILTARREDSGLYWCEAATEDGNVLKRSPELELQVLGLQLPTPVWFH
Assay: SPR (Biacore), antibody captured, FcγR as analyte; binding as % of GpH7-A5/GpH7-B3/GpL16-k0

Binder | He/Con_1a
B17 | 93.6 % of control
B18 | 93.4 % of control
B19 | 95 % of control
B20 | 96 % of control
B21 | 99.2 % of control

Target: T1, FcγRIIb
Assay: as above

Binder | He/Con_2b
B17 | 102 % of control
B18 | 114 % of control
B19 | 116 % of control
B20 | 114 % of control
B21 | 112 % of control

Source: patent US20180155451A1 (published 2018)
